Laboratory results as given in IntAct's records for PubMed 15205472.

B1: Prospero homeobox protein 1 (Homo sapiens), Q92786 (parent)
chain: MPDHDSTALLSRQTKRRRVDIGVKRTVGTASAFFAKARATFFSAMNPQGSEQDVEYSVVQHADGEKSNVLRKLLKRANSYEDAMMPFPGATIISQLLKNNMNKNGGTEPSFQASGLSSTGSEVHQEDICSNSSRDSPPECLSPFGRPTMSQFDMDRLCDEHLRAKRARVENIIRGMSHSPSVALRGNENEREMAPQSVSPRESYRENKRKQKLPQQQQQSFQQLVSARKEQKREERRQLKQQLEDMQKQLRQLQEKFYQIYDSTDSENDEDGNLSEDSMRSEILDARAQDSVGRSDNEMCELDPGQFIDRARALIREQEMAENKPKREGNNKERDHGPNSLQPEGKHLAETLKQELNTAMSQVVDTVVKVFSAKPSRQVPQVFPPLQIPQARFAVNGENHNFHTANQRLQCFGDVIIPNPLDTFGNVQMASSTDQTEALPLVVRKNSSDQSASGPAAGGHHQPLHQSPLSATTGFTTSTFRHPFPLPLMAYPFQSPLGAPSGSFSGKDRASPESLDLTRDTTSLRTKMSSHHLSHHPCSPAHPPSTAEGLSLSLIKSECGDLQDMSEISPYSGSAMQEGLSPNHLKKAKLMFFYTRYPSSNMLKTYFSDVKFNRCITSQLIKWFSNFREFYYIQMEKYARQAINDGVTSTEELSITRDCELYRALNMHYNKANDFEVPERFLEVAQITLREFFNAIIAGKDVDPSWKKAIYKVICKLDSEVPEIFKSPNCLQELLHE
B2: Nuclear receptor subfamily 5 group A member 2 (Homo sapiens), O00482-2 (parent)
chain: MSSNSDTGDLQESLKHGLTPIVSQFKMVNYSYDEDLEELCPVCGDKVSGYHYGLLTCESCKGFFKRTVQNNKRYTCIENQNCQIDKTQRKRCPYCRFQKCLSVGMKLEAVRADRMRGGRNKFGPMYKRDRALKQQKKALIRANGLKLEAMSQVIQAMPSDLTISSAIQNIHSASKGLPLNHAALPPTDYDRSPFVTSPISMTMPPHGSLQGYQTYGHFPSRAIKSEYPDPYTSSPESIMGYSYMDSYQTSSPASIPHLILELLKCEPDEPQVQAKIMAYLQQEQANRSKHEKLSTFGLMCKMADQTLFSIVEWARSSIFFRELKVDDQMKLLQNCWSELLILDHIYRQVVHGKEGSIFLVTGQQVDYSIIASQAGATLNNLMSHAQELVAKLRSLQFDQREFVCLKFLVLFSLDVKNLENFQLVEGVQEQVNAALLDYTMCNYPQQTEKFGQLLLRLPEIRAISMQAEEYLYYKHLNGDVPYNNLLIEMLHAKRA

Variants of: B1
Conditions: with NR5A2, O00482-2

Row | Variant | effect of a mutation on the interaction
1 | L70A;L73A | disrupting interaction

Variants of: B2
Conditions: with prox1_human PROX1, Q92786

Row | Variant | effect of a mutation on the interaction
2 | L453A;L454A | disrupting interaction
3 | Q273A;Q281A;Q282A | disrupting interaction
4 | D326A;D327A;M329A | decreasing interaction
5 | K301A;Q305A;F308A | decreasing interaction
